What was measured:
[1] = target: Zn-containing form of the soluble domain of the Rieske-type iron-sulfur protein PetA from Thermochromatium tepidum (Thermochromatium tepidum); assay: SEC-MALS; Superdex 200 Increase 10/300 GL, buffer A, 0.5 mL/min, 24 °C; about 100 µL of 7.3 mg/mL protein (first colorless SEC fraction) injected
[2] = target: Zn-containing form of the soluble domain of the Rieske-type iron-sulfur protein PetA from Thermochromatium tepidum (Thermochromatium tepidum); assay: SEC; purification step after removal of the His-tag; HiLoad 16/60 Superdex 75 in buffer A (10 mM Tris-HCl pH 7.6, 150 mM NaCl); masses estimated with low molecular weight marker mixture

## Zn-containing form of the soluble domain of the Rieske-type iron-sulfur protein PetA from Thermochromatium tepidum (domain or fragment)
[1]
  stoichiometry N: 2
[2]
  stoichiometry N: 2
